Test results as given in patent publication US20250346668A1 (GENOR BIOPHARMA, published 2025).
Positions count from the first letter of the chain named. Each block holds one binder with its values, some of them ahead of it.

Biological target: T1, human CD3e/g antigen (ACRO, catalog number CDG-H52W5) (human, UniProt P07766 23-126; P09693 23-116)
T1 construct: Bought reagent used as the Biacore analyte; also called hCD3e/g
Assay: SPR (Biacore 8K), antibody captured via anti-human Fc
Method: The equilibrium dissociation constant of binding of CD3 antibodies to human CD3e/g antigen (purchased from ACRO, catalog number CDG-H52W5) was determined by kinetic binding method using Biacore 8K (GE) system. Through the capture method, the carboxylated dextran surface of CM5 chip was first activated with NHS (N-hydroxysuccinimide) and EDC (1-(3-dimethylaminopropyl)-3-ethylcarbodiimide hydrochloride), and then added with an anti-human IgG (Fc) antibody, the free amino group of which could form an amide bond with the activated carboxyl group, thereby being fixed on the chip surface. The anti-human IgG (Fc) antibody could bind to the Fc end of CD3 antibodies to capture the antibodies, and then a series of concentrations of antigen were added to obtain the binding and dissociation curves of antibody and antigen, and the corresponding kinetic constants were calculated by Biacore Evaluation software, as shown in the table below.

Kd: 5.26 nM
koff: 0.00225 s⁻¹
kon: 427000 M⁻¹ s⁻¹
B2: hAb007-31 (antibody, V domains shown)
VH: QVQLVQSGAEVKKPGASVKVSCKASGSTFTDNYIHWVKQAPGQRLEWIGWIYPGSVNIKYNEKFKDRATITADTSATTAYMELSSLRSEDTAVYYCARDISRYYFDYWGQGTTVTVSS
VL: DIVMTQSPDSLAVSLGERATMNCKSSQSLLNSRTRKNYLAWYQQKPGQPPKLLIYWASTRESGVPDRFSGSGSGTDFTLTISSLQAEDVAVYYCKQSFILRTFGGGTKLEIK
notes: Humanized; constant regions not specified

Kd: 7.62 nM
koff: 0.0032 s⁻¹
kon: 419000 M⁻¹ s⁻¹
B5: hAb007-32 (antibody, V domains shown)
VH: B2 VH
VL: B2 VL with S69T
notes: as for B2

Further lines, the binder ahead of its results:

B1: hAb007-27 (antibody, V domains shown)
VH: B2 VH with K38R, T77S
VL: B2 VL
notes: as for B2
Kd: 10 nM
koff: 0.00427 s⁻¹
kon: 427000 M⁻¹ s⁻¹

B3: hAb007-28 (antibody, V domains shown)
VH: B2 VH with K38R, T77S
VL: B2 VL with S69T
notes: as for B2
Kd: 11.8 nM
koff: 0.00494 s⁻¹
kon: 420000 M⁻¹ s⁻¹

B4: hAb007-30 (antibody, V domains shown)
VH: B2 VH
VL: B2 VL with M21I, S69T
notes: as for B2
Kd: 7.11 nM
koff: 0.00316 s⁻¹
kon: 445000 M⁻¹ s⁻¹

B6: hAb007-29 (antibody, V domains shown)
VH: B2 VH
VL: B2 VL with M21I
notes: as for B2
Kd: 9.85 nM
koff: 0.00415 s⁻¹
kon: 421000 M⁻¹ s⁻¹
